Experimental findings from FireProtDB (doi:10.1093/protein/gzl019) are described below.

First the molecules themselves.
B1: Cold shock protein CspB, P41016 (parent)
chain: MQRGKVKWFNNEKGYGFIEVEGGSDVFVHFTAIQGEGFKTLEEGQEVSFEIVQGNRGPQAANVVKL

Variants of B1 are the subject of the series. Conditions: Bacillus caldolyticus, pH 7, Thermal, Na cacodylate/HCl 0.1 M, reversible: Yes, structure 1C9O, whole UniProt chain shown.

On to H29E, for which the “ddG of mutation (higher = less stable)” value (75 °C, DSC, NaCl 0-2 M) is 0.29 kcal/mol; the “ddG of mutation (higher = less stable)” value (75 °C, DSC, NaCl 2 M) stood at 0.48 kcal/mol; the “ddG of mutation (higher = less stable)” value (75 °C, DSC) was found to be 0.76 kcal/mol. Besides, the “heat capacity change of unfolding” value worked out at 0.96 kcal/mol/K (75 °C, DSC, NaCl 0-2 M); 0.96 kcal/mol/K (75 °C, DSC, NaCl 2 M); 0.96 kcal/mol/K (75 °C, DSC).
One may read the Tm as the temperature at which the thermal transition is half complete. On to E50K, for which, where the note is “75 °C, CD, NaCl 0-2 M”, the “ddG of mutation (higher = less stable)” value was 0.76 kcal/mol and the “heat capacity change of unfolding” value came out at 0.96 kcal/mol/K. For the setting “75 °C, CD, NaCl 2 M”, the “ddG of mutation (higher = less stable)” value was -0.26 kcal/mol and the “heat capacity change of unfolding” value is 0.96 kcal/mol/K. Further, for the setting “75 °C, CD”, the “ddG of mutation (higher = less stable)” value was 0.5 kcal/mol and the “heat capacity change of unfolding” value is 0.96 kcal/mol/K. Moreover, under “CD”, the midpoint of thermal melting (Tm) was found to be 73.5 °C; the “change of melting temperature, mutant - wild type (higher = more stable)” value (“change of melting temperature, mutant” for short) is -3.4 °C; the “heat capacity change of unfolding” value was determined as 0.96 kcal/mol/K; the “unfolding enthalpy (van 't Hoff)” value worked out at 43.3 kcal/mol.
Consider E36K, for which, where the note is “75 °C, CD, NaCl 0-2 M”, the “ddG of mutation (higher = less stable)” value came out at 0.98 kcal/mol and the “heat capacity change of unfolding” value worked out at 0.96 kcal/mol/K. For the setting “75 °C, CD, NaCl 2 M”, the “ddG of mutation (higher = less stable)” value was -0.79 kcal/mol and the “heat capacity change of unfolding” value came to 0.96 kcal/mol/K. For the setting “75 °C, CD”, the “ddG of mutation (higher = less stable)” value was 0.19 kcal/mol and the “heat capacity change of unfolding” value stood at 0.96 kcal/mol/K. Moreover, for the setting “CD”, the Tm stood at 76 °C; the “change of melting temperature, mutant” value was -0.9 °C; the “heat capacity change of unfolding” value was found to be 0.96 kcal/mol/K; the “unfolding enthalpy (van 't Hoff)” value amounted to 45.6 kcal/mol.
As to N55K, under “75 °C, CD, NaCl 0-2 M”, the “ddG of mutation (higher = less stable)” value came to 0.29 kcal/mol and the “heat capacity change of unfolding” value stood at 0.96 kcal/mol/K. Moreover, for the setting “75 °C, CD, NaCl 2 M”, the “ddG of mutation (higher = less stable)” value is -0.19 kcal/mol and the “heat capacity change of unfolding” value is 0.96 kcal/mol/K. In addition, where the note is “75 °C, CD”, the “ddG of mutation (higher = less stable)” value was -0.1 kcal/mol and the “heat capacity change of unfolding” value came to 0.96 kcal/mol/K. In addition, where the note is “CD”, the Tm amounted to 77.7 °C; the “change of melting temperature, mutant” value is 0.8 °C; the “heat capacity change of unfolding” value worked out at 0.96 kcal/mol/K; the “unfolding enthalpy (van 't Hoff)” value came to 55.2 kcal/mol.
For the variant E21K, for the setting “75 °C, CD, NaCl 0-2 M”, the “ddG of mutation (higher = less stable)” value was found to be 0.43 kcal/mol and the “heat capacity change of unfolding” value stood at 0.96 kcal/mol/K. In addition, for the setting “75 °C, CD, NaCl 2 M”, the “ddG of mutation (higher = less stable)” value was -0.17 kcal/mol and the “heat capacity change of unfolding” value amounted to 0.96 kcal/mol/K. Also, where the note is “75 °C, CD”, the “ddG of mutation (higher = less stable)” value was determined as 0.26 kcal/mol and the “heat capacity change of unfolding” value amounted to 0.96 kcal/mol/K. For the setting “CD”, the midpoint of thermal melting (Tm) turned out to be 75.4 °C; the “change of melting temperature, mutant” value is -1.5 °C; the “heat capacity change of unfolding” value worked out at 0.96 kcal/mol/K; the “unfolding enthalpy (van 't Hoff)” value worked out at 49 kcal/mol.
With E46K, under “75 °C, DSC, NaCl 0-2 M”, the “ddG of mutation (higher = less stable)” value is 0.43 kcal/mol and the “heat capacity change of unfolding” value was 0.96 kcal/mol/K. Besides, under “75 °C, DSC, NaCl 2 M”, the “ddG of mutation (higher = less stable)” value stood at 0.22 kcal/mol and the “heat capacity change of unfolding” value came to 0.96 kcal/mol/K. In addition, for the setting “75 °C, DSC”, the “ddG of mutation (higher = less stable)” value was 0.65 kcal/mol and the “heat capacity change of unfolding” value was found to be 0.96 kcal/mol/K. Also, under “DSC”, the melting temperature (Tm) worked out at 74 °C; the “change of melting temperature, mutant” value is -2.9 °C; the “heat capacity change of unfolding” value was found to be 0.96 kcal/mol/K; the “unfolding enthalpy (calorimetric)” value came to 114 kcal/mol.
Take E12K: the “ddG of mutation (higher = less stable)” value reads like this: (75 °C, CD, NaCl 0-2 M) 0.1 kcal/mol; (75 °C, CD, NaCl 2 M) 0.29 kcal/mol; (75 °C, CD) 0.43 kcal/mol. In addition, the “heat capacity change of unfolding” value runs as follows: (75 °C, CD, NaCl 0-2 M) 0.96 kcal/mol/K; (75 °C, CD, NaCl 2 M) 0.96 kcal/mol/K; (75 °C, CD) 0.96 kcal/mol/K.
Turning to R56E, the “ddG of mutation (higher = less stable)” value was -0.53 kcal/mol (75 °C, CD, NaCl 0-2 M); -0.24 kcal/mol (75 °C, CD, NaCl 2 M); -0.76 kcal/mol (75 °C, CD). Besides, the “heat capacity change of unfolding” value stood at 0.96 kcal/mol/K (75 °C, CD, NaCl 0-2 M); 0.96 kcal/mol/K (75 °C, CD, NaCl 2 M); 0.96 kcal/mol/K (75 °C, CD).
